Laboratory results reported in the supplement of paper PMC11502859.

System: HEK293T
Test: median enrichment of reporter reads in eGFP-reduced (low/intermediate) vs eGFP-high sorted cells (eGFP-extension fusion abundance) (ratio); higher = stronger loss of eGFP-fusion protein abundance (more destabilising extension)
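Note: lentiviral eGFP-IRES-mCherry reporter pool sorted by FACS 96 h post-transduction, gated on mCherry-high cells, Illumina read counts normalized per million, median across four biological replicates.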

Row | Substance | median enrichment
1 | YCLSILVHGCFERYGRQSPGHN [MAGEC3] | 5.24
2 | QSSF [PCNX4] | 0.571
3 | WSLRWSFVTARFARHLPGWLVLG [ARHGEF26] | 15.8
4 | WCLGSTCLLSPQGLSLASLQWGCCVSVHLRLLCLCLLHHAGVWEEWTDRG [TCL1A] | 4.56
5 | QISTNKSKTNSRIPDCPIPI [PTCHD3] | 2.49
6 | LASCGPGNEMELTA [TSSK1B] | 1.49
7 | WPLDVGKPCGPPLITSSPRMTAEPQASGAGLMYPNLGQHDCRSIQSLPAPSMKGPPKTVLGTQCVAGSPPS [MINDY4] | 0.736
8 | QGSYGIPPRSARA [CDKN2A] | 5.31
9 | YHQNLCQNTKECA [TLL1] | 0.773
10 | WQKSKGHPVPGRLSGICSPVPGTKSSTAAVKKHALESLEHEEKQGLVHMFFGISL [IL1RAPL1] | 10.6
11 | PPP [Pro03] | 0.305
12 | RRRRRRR [Arg07] | 0.889
13 | REDAFLFMGFLPWSLSSKCHSGQSFVSVS [NOD1] | 33.9
14 | LNE [ZCCHC2] | 0.346
15 | QAVNSTFKVI [LMNTD1] | 0.803
16 | ETLNILSLIFN [POLK] | 8.07
17 | LDRTWEPGGWEGQG [SLC35G6] | 0.429
18 | YTQKTNSIQSQ [ENDOD1] | 1.93
19 | YSWANDH [SEMA4F] | 0.76
20 | YLISYYIF [PCDHB8] | 5
21 | YIMRHTV [TBC1D32] | 5.87
22 | QKGSGPGIHVGGRGRGGRREGRGEIHTVDTLTSWPKSLPQDLPDLHGQASYGGVSISFFLFLFPGLRASWGPRFTNSPTPLKL [AQP1] | 6.27
23 | LLRDPAPPL [AHSP] | 4.96
24 | YGEKIRNGCCT [WDR64] | 0.76

Row | Substance | median enrichment
25 | RVFGNRISCVAHRPVEKLEPKLSYLEMTFGLDSW [C12orf76] | 4.28
26 | WRLSISRDMVLTQQFPVMAKCSI [IL13RA2] | 5.59
27 | SQSG [PARD6A] | 1.41
28 | SWTVPICREA [RWDD1] | 6.01
29 | ITGTACLGTRFPPAAVTMVASTATPGVQSTAPCPPCVPRSRGSVHHSSPRWRAGLPGGSPVALPWLWGWRDLARMNPPVPGTL [PIGQ] | 3.37
30 | LLC [OR10A3] | 3.73
31 | EMCNLISLFHHNHDRW [C9orf72] | 9.03
32 | RRRRRRRRR [Arg09] | 1.11
33 | APLGLEFATGRILQRQVVPGPLLHPFSRRPCQRLHPVVNLVWRQRLRGWTSIVGQGLTLQGFCSWLWTPENPLLPSPNTRFLT [FAM110A] | 5.18
34 | RFHRSAFGHLLWWVLVTHFRLRFDGLNLYSLESMSCVYSTIRNLILFLLLFLQKQKLILKSIIMGWGGGCPQDMQDFCRGQHR [SETD4] | 8.11
35 | EESATNYNFTIKTGKRPGMVAHACNHSTLGG [OR6C6] | 6.68
36 | SKGQLPGKTRF [PHLDA1] | 1.67
37 | YRKGW [C9orf131] | 0.926
38 | YCLRGRLAASPAPPDLAPRAAAGAAACPGPPLRPASSRRPGAQPCAAEDSRDWRRPRPATAGARGHLPGLLTLSPHWEWAPRG [TMUB1] | 5.27
39 | YHPSG [FAM183A] | 0.527
40 | KDS [RPAP1] | 0.532
41 | YAQPGPQIRSAQQRPGPSSRTTRPHHASCSQTQN [CCDC27] | 0.132
42 | CCSSVKEQQTWHWNRVENPGFCTWRGKMPSCFLINPNFIYSSGTLWG [OPALIN] | 5.49
43 | LAHEPTRMSSDFQPHPSGSCAKGGGRR [TREM1] | 0.974
44 | FFFFFFF [Phe07] | 7.66
45 | LPMTLSWGPPARPGTFLPNPQTHDSLPHRLPQRPPTHFILSGHPSDLDPPVRAFKAPNSGTRSAPLPRPRAGNFSLPDPALLF [SCRT2] | 6.07
46 | RRRRR [Arg05] | 0.5
47 | PKWNHLTSAAPDLPGRMPLPLPSSNPQTRTPFLPPQAGPAPGVGSALSTPRAPRPSEGAPAGASDTLQFRAVGGLGHIPVPWL [SECTM1] | 1.79
48 | RPQMAGTCSSDERVLRRTPPSSVLEAGRLGSRRGQRHLLSVLGCKQLCVSGDTSHHVPGN [AIRE] | 7.82

Row | Substance | median enrichment
49 | FFFFFFFFFF [Phe10] | 7.03
50 | WQP [TP53AIP1] | 0.544
51 | KIWLFMHCGMCSSFSVFRYKVLYQSVIYKVYQHKCW [MLH1] | 5.38
52 | LQPIYLFISLWGLTH [GUCY1A1] | 15.3
53 | LSGLCT [LCE1A] | 0.479
54 | RSHL [BBOX1] | 11.7
55 | VVRASPYLLLSPCEEDPDLASFPRRGWGVPRVPVLEGPPSPSLITVLFSAPPSAARLQHQGEADAEPHRWESCLWKGAFCYNL [ZNF646] | 3.51
56 | CPLNAANSASRTPNNSA [OR2AT4] | 0.496
57 | YGIRLSCFKNVRESHILLMANCYINGNT [CBWD1] | 1.39
58 | PTASSLQVQLKPLSSGGRHVERAGRPTAAENRAGTGSSCSAFPSFGDAGSAAPKHLPAPHSTVSEDSSLLPVKLPCAGMAWTC [CDC14B] | 2.89
59 | YYYYYY [Tyr06] | 2.81
60 | CLERW [LCOR] | 1.17
61 | LFIRSHGPITITLFSAFLLSSFLLSSPLLSSPLLPSPLCFFFFFFSFLWRSFALVAQAAVQWLNLGSLQPLPPRFK [GFRAL] | 7.15
62 | ELPGLGGLSGIAMLVAREKKSTANKTTQTKPSTA [FOXA1] | 1.47
63 | RDVQDL [ZMPSTE24] | 0.177
64 | YDGGQIKVLAFRCL [KCNMB3] | 9.29
65 | LTFQDEWFILSNLLLTEQSSEPFNFKLHQLCAEPWCKVLSHSFFLSVEFGAIVSGT [ATAD2B] | 6.97
66 | QHLVQQ [IFNA13] | 0.328
67 | WQAGS [IFITM5] | 0.552
68 | WQHFCILKKCNLFLITALKL [UBQLN1] | 12.2
69 | CCCCCCCC [Cys08] | 8.63
70 | QAPTLLLLALLPASVQRTGRYWWEALCLAPQLPVWASKHNGPSRSLVETGVVVPNLPSALPLHRTQRPQALQGVLVPAFPRTS [AMIGO3] | 1.8
71 | KKNQNGLR [ADGRB3] | 0.618
72 | EGTLQSLFHIFKPH [HMCN1] | 7.78

Row | Substance | median enrichment
73 | LKPGC [KRTAP1-4] | 0.613
74 | CGLGWAGARRAAGWPLGGQDGTVGTEVGGRGPSGLN [TNFRSF8] | 5.21
75 | YGFVVQD [EPM2AIP1] | 0.381
76 | KAGTDLGPKIPFQRN [RBMXL2] | 0.175
77 | LTFSGNRADDYNIFFLMLTFLKIHIWDSYYQGSTYVNLQFMFQDICQMYYRCL [SUV39H2] | 10.1
78 | LTLTV [ABCB1] | 1.67
79 | LVARALGVLLEAPRASRIASQLPGQPTLLQPLTRTPVIRTGAPVPWSPPWAHVLTQAQQ [OVOL1] | 9.61
80 | RNQVASCPLLRGNPRPLASLPTYKALSQGIAGPRCLDPGCASPSLCSPWKGR [HSPBP1] | 7.21
81 | YKWQQNLTPRPANSASLVTLFWLLDGFHSSLGFVCEYCLLCFVFNCNG [OR7E24] | 6.78
82 | GVPGHSGLVQTPLL [PAF1] | 0.255
83 | SVPRPCQPCCTGCRHCTRCEGSTPAQAEFLGSTSPAAWGTGIAHSVNGSTPAWAESLGSDLAAWGESLGSVLAAWGAGIAQSM [WNT9A] | 7.93
84 | YQVIAEQMNRPPASVANTRSISLGQWTNT [LCP2] | 2.43
85 | SGNRDAFPCSSLQPPLPYKIWSNS [ADH1B] | 2.16
86 | RGCAPAGSSKDRPARSPSNPTFFWKGGVLQGQAGASSRLLGANPSMYIAFLSCLRAADSQRCARGERCAVGSRA [TNFRSF1A] | 10.5
87 | SSSSSS [Ser06] | 0.35
88 | WELLFLGEGEEGKGPGSRGTRG [EPHB1] | 5.5
89 | GHPQDTPMWLLDNPRAAKSCFSSLAPQVLQDRALKATPNEFSGFRLWLQPNRTHFEHPDCIFAFRKLE [C5orf46] | 3.29
90 | KDCDFFVKEAVRIIINNSNSLHFSQGVHCS [MAATS1] | 5.42
91 | YILYNCEINLR [OR4F4] | 5.6
92 | SFHLLKPAYFRTLRLTVFSLLMMSSC [PIK3AP1] | 11.1
93 | KQRRWTFCSNVYMYRIVHTSNSEDLYL [SLC10A7] | 6.06
94 | GYSHPGTEKAADGDCLPQPQQHLGLQLLESYHPRRQAQPGRGEEWAVKMKPHAQSPPIPHAAPPQSQATSCLLLVGGGLLSPS [LGALS9] | 3.94
95 | LRPHKHYGRSVGPQHGLPSGRPVLPEEGPACWPGACRHC [ZGPAT] | 6.53
96 | SAHSPLSQDMDLELRMGLS [IMP4] | 0.513

Row | Substance | median enrichment
97 | REFYRDAEKKERSEAIYAYGSRKR [CHCHD7] | 7.02
98 | SKACILFEDIYKAI [KRT34] | 2.29
99 | YLVIHAFFPGQGSRVTRPPETSQEARALFK [SNX19] | 13.6
100 | WSSSSSFIGLSGC [EDARADD] | 1.2
101 | MLSESRNFPAQA [Degron KLHDC3] | 4.77
102 | WNEPWSPLQSSPWDRDVAGQNSQLCVCVFRLIGNSKSLLPAPSKLDGQWSGIETVV [IL18RAP] | 5.03
103 | RRRRRRRR [Arg08] | 1.49
104 | YNIRKKATSMVINGRKAGELDSAVLLTGELWSSAPVYGPCRLVGWQMLA [DPPA4] | 10.4
105 | LDVQDL [ZMPSTE24] | 0.209
106 | CFSRGQGGEGASGGVGAGGTVPREPGGSHTRTAPVSSGHCNPVGLFLQHSRSLPSIATLQTPG [SFRP1] | 4.21
107 | LSYQTTY [USP51] | 1.11
108 | RGFRHCIPELL [PPM1M] | 1.19
109 | RDASTGPSLFCPQP [HSPB8] | 0.453
110 | GTLTV [ABCB1] | 0.767
111 | WCWKRSKHWPLVSTLQPPQVPLWGDTGGPLAVTPCAWSDPRPLPPARFLLSPAWEDVSLSTSQRARGARGWTGQ [PPP2R1A] | 3.49
112 | ECLSIKSGFAP [NPL] | 0.687
113 | KMDPCEIYHSLVSPSFLSFLNSTFWRDFPK [OR9Q2] | 3.34
114 | LSQTSFYIREPFQYSESETPA [ZNF12] | 3.12
115 | RIQPKCQVRSEGIFH [ABCC4] | 1.49
116 | CERGLSSSLPAPSSPRPSSLCAW [HOXC10] | 2.77
117 | YRTDVE [HEY1] | 0.613
118 | CYSK [FAM162B] | 0.641
119 | LPAAPGTRGYTPVSLRE [KRTAP12-3] | 0.986
120 | KFLSF [FNBP4] | 1.62
